Assay results: patent US20160237154A1 (SORRENTO THERAPEUTICS, published 2016)
Each block holds one binder with its values, some of them ahead of it.

Tests used:
human CTLA4 [1] = biological target: T1, human CTLA4 (human, UniProt P16410 36-161, limits assumed); experiment: selection of human antibodies; method not described
T1 sequence (looked up): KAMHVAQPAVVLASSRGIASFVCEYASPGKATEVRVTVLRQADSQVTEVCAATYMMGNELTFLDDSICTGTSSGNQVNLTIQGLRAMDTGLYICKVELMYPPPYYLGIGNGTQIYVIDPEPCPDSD

human CTLA4 [2] = biological target: T1, human CTLA4; experiment: SPR (BiaCore)
[3] = biological target: T2, Recombinant human CTLA4/His (human, UniProt P16410 36-162, limits assumed); experiment: SPR (Biacore), antibody captured on anti-human Fc, CTLA4/His as analyte, 1:1 model
T2 construct: not shown: His tag
T2 sequence (looked up): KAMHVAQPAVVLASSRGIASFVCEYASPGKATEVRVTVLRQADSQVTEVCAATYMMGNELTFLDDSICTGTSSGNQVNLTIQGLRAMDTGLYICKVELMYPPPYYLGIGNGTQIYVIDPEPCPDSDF
Protocol: This example illustrates binding affinities of exemplary anti-CTLA4 antibodies disclosed herein. Affinities were determined using surface plasmon resonance (Biacore). Briefly, Anti-human Fc antibody (GE, BR-1008-39) was immobilized on CM5 sensor chip to approximately 1000 RU using standard NHS/EDC coupling methodology. Antibodies (about 10 μg/ml) were captured for 60 s at a flow rate 10 μl/min Recombinant human CTLA4/His was serially diluted in running buffer (HBS-EP). All measurements were conducted with a flow rate of 30 μL/min Surfaces were regenerated with 3M MgCl₂ for 60 s. A 1:1 (Langmuir) binding model was used to fit the data.

B1: F1 (antibody, V domains shown)
VH: EVQLVQSGAEVKKPGASVKVSCKASGYTFTSYGISWVRQAPGQGLEWMGWISAYNGNTNYAQKLQGRVTMTTDTSTSTAYMELRSLRSDDTAVYYCARVGYGGYFDYWGQGTLVTVSS
VL: SYELMQPPSVSKGLRQTATLTCTGNSNNVGNQGADWLQQHQGHPPKLLSYRNNDRPSGISERFSASRSGSTASLTITGLQPEDEADYYCLAWDSSLSAWVFGGGTKVTVL
binding result (human CTLA4 [1]): binds

B2: F5 (antibody, V domains shown)
VH: EVQLVQSGTEVKKPGSSVKVSCKASGGSFSNYAISWVRQAPGQGLEWMGRIIPILGIANYAQKFQGRVTITADKSTSTAYMELSSLGSEDTAVYYCARESGSYLDPWGQGTLVTVSS
VL: DIVMTQSPDSLAVSLGERATINCKSSQSVLYSPNNKNYLTWYQQKPGQPPKLLMYWASTRESGVPDRFSASGSGTDFTLTISSLQAEDVAVYYCQQSRSGPYTFGQGTKVEIK
binding result (human CTLA4 [1]): binds

B3: B6 (antibody, V domains shown)
VH: QVQLVQSGAEVKKPGATVKVSCTASGFPFRNYAMHWVRQAPGQRLEWLGWIDAGNGNTKYSQTFHGRVTITRDTSASTAYMELSSLRSEDTAVYYCARDLLWPYLVTSGGAFDIWGQGTMVTVSS
VL: SYELMQPPSTSGTPGQRVTISCSGSSSNIGSHIVNWYQQFPGAAPQLLIYNDDQRPSGVPDRFSGSKSGASASLAISGLQSEDEAHYYCSAWDDILKGPVFGGGTKLTVL
binding result (human CTLA4 [1]): binds

B4: E8 (antibody, V domains shown)
VH: QVQLVQSGAEVKKPGASVKVSCEASGYTFTNYYIHWLRQAPGQGLEWMGIINPSGGSTTYAQKFQGRITMTRDTSTNTLYMELSSLRSEDTAIYYCARRDCRGPSCYFAYWGQGTTVTVSS
VL: DIVMTQSPSSLSASVGDRVTITCRASQSISSYLNWYQQKPGKAPKLLIYAASSLQSGVPPRFSGSGSGTEFTLTISSLQPEDFATYYCQQANSFPPTFGQGTKVDIK
notes: also called antibody E8
Kd (human CTLA4 [2]): 58.9 nM
koff (human CTLA4 [2]): 0.00488 s⁻¹
kon (human CTLA4 [2]): 82900 M⁻¹ s⁻¹

B5: A4 (antibody, V domains shown)
VH: QVQLVESGGGLIQPGGSLRLSCAASGFSVSNNYMNWVRQAPGKGLEWVSVIYRGGSTYYADSVKGRFTISRDNSKNTLYLQMNSLRTEDTAVYYCLREGGTSGDYVNDWGQGTLVTVSS
VL: QSVVTQPPSVSGAPGQRVTISCTGSSSNIGAGYDVHWYQQLPGTAPKLLIYGNKNRPSGVPDRFSGSKSGTSASLAITGLQAEDEADYYCQAYDSSLSVVFGGGTKLTVL
binding result (human CTLA4 [1]): binds

B6: C2 (antibody, V domains shown)
VH: QVQLVQSGAEVKKPGASVKVSCKASGYTFTTHYIHWVRQAPGQGLEWMAIINPNDGVKVYAQKFKGRLTVASDTSATTVYMDLSGLTSDDTAVYYCGREQHGGHHDYWGQGTLVTVSS
VL: QAGLTQPASVSGSPGQSITISCTGTSSDVGGYNYVSWYQQHPGKAPKLMIYDVTNRPSGVSNRFSGSKSGNTASLTISGLQAEDEADYYCKSYTSSSTPYVFGTGTKVTVL
binding result (human CTLA4 [1]): binds

B7: G5 (antibody, V domains shown)
VH: QVQLQQSGPGLVKPSQTLSLTCAISGDSVSSNSAAWNWIRQSPSRGLEWLGRTYYRSKWYNDYAVSVKSRITINPDTSKNQFSLQLNSVTPEDTAVYYCARDRWELPFDYWGQGTTVTVSS
VL: QSVVTQPPSVSAASGQKVIISCSGSNSNIVNNYVSWYQQLPGAAPKVLIYANNKRPSGIPDRFSGSKSGTSAFLAITGLQTGDEADYYCGTWDGSLDVDVFGGGTKLTVL
binding result (human CTLA4 [1]): binds

B8: G1 (antibody, V domains shown)
VH: QVQLVQSGAEVKKPGASVKVSCKTSGNTFTNYYMHWVRQAPGQGLEWMGIMNPSGGSTSYAQKFQGRVTMTRDKSTSTVYMELSSLTSEDTAVYYCARDLFPHIYGNYYGMDIWGQGTTVTVSS
VL: QSVVTQPPSVSAAPGQNVTISCSGSSSNIGNNYVSWYQQLPGTAPKLLIYDNNRRASGIPDRFSGSKSGTSATLGITGLQTGDEADYYCGTWDRSLTTDWVFGGGTKLTVL
binding result (human CTLA4 [1]): binds

B9: A2 (antibody, V domains shown)
VH: QMQLVQSGAEVKMPGSSVRISCKASGGSFTTHFINWVRQAPGQGLEWMGWMNPNTGNTGYAERFQGRVTLTRDTSISTAYLELSSLRSDDTAVYYCARNPAESGRFDPWGQGTLVTVSS
VL: QSALTQPPSASGSPGRSVTISCTGTSNNVGGYNYVSWYQQHPGKAPKLMIYEVTKRPSGVPDRFSGSKSGNTASLTVSGLQAEDEADYYCGTWDGSLNAYVFGTGTKVTVL
binding result (human CTLA4 [1]): binds

B10: F6 (antibody, V domains shown)
VH: EVQLVESGGGFVKPGRSLRLSCTASGFTFGDYGMSWFRQAPGKGLEWVGFIRSKAYGGTTDYAASVKGRFTISRDDSKSFAYLQMNSLKTEDTAVYYCTRGHYSASIWGQGTLVTVSS
VL: SYELMQPPSVSVAPGKTARITCGGNNIGSKSVHWYQQRPDQAPVLVIYSDNDRPSGIPERFSGSSSGHTATLTISRVEAGDEADYFCQVWDSNKNEWVFGGGTKLTVL
binding result (human CTLA4 [1]): binds

B18: F7 (antibody, V domains shown)
VH: QVQLVQSGAEVKKPGASVKVSCKASGYAFDGHYMHWVRQAPGQRLEWMGWVDPHSGATNYAQNFQGGVTMTRDTSINTVYMELSSLKSDDTAVYYCARDFYDTSAKSGAFDIWGQGTMVTVSS
VL: AIQLTQSPSSVSASVGDRVTITCRASQGISSWLAWYQQKPGKAPKLLIYAASSLQSGVPSRFSGSGSGTDFTLTISSLQPEDFATYYCQQVNSFPWAFGQGTKVEIK
notes: captured by anti-human Fc antibody in SPR, so it has a human Fc; also called anti-CTLA4 antibody F7
Kd [3]: 0.738 nM
koff [3]: 0.000217 s⁻¹
kon [3]: 294000 M⁻¹ s⁻¹

Next, values leading:

binding result (human CTLA4 [1]): binds
B11: A12 (antibody, V domains shown)
VH: QVQLVESGGGLVQPGGSLRLSCAASGFTFSNYAMNWVRQTPGKGLEWVSVNYNDGFGTFNGYYADSVKGRFIISRDNSKNTLYLQMNSLRVDDTAVYYCARDSGVAGPYYFDNWGQGTLVTVSS
VL: AIQLTQSPSTLSASVGDRVTITCRASQSISSWLAWYQQKPGKAPKLLIYKASSLESGVPSRFSGSGSGTEFTLTISSLQPDDFATYYCQQYNSSPLTFGGGTKLEIK

binding result (human CTLA4 [1]): binds
B12: G3 (antibody, V domains shown)
VH: QVQLVQSGAEVKKPGASVKVSCKASGYTFTSYYMHWVRQAPGQGLEWMGIINPSGGSTSYAQKFQGRVTMTRDTSTSTVYMELSGLRSEDTAVYYCARYEHDYDSSKATTGYFDYWGQGTLVTVSS
VL: AIQLTQSPDSLAVSLGERATINCKSSQSILYRSNNKNYLAWYQQKPGQPPKLLIYWASTRESGVPDRFSGSGSGTDFTLTISSLQPEDFATYYCQQADRFPITFGQGTRLEIK

binding result (human CTLA4 [1]): binds
B13: D5 (antibody, V domains shown)
VH: QVQLQQSGPGLVKPSQTLSLTCAISGDSVSSNSAAWNWIRQSPSRGLEWLGRTYYRSKWYNDYAVSVKSRITINPDTSKNQFSLQLNSVTPEDTAVYYCAMHSGYRNYGMDVWGQGTTVTVSS
VL: QSVVTQPPSVSGAPGQRVTISCTGSSSNIGAGYDVHWYQQLPGTAPKLLIYGNSNRPSGVPDRFSGSKSGTSASLAITGLQAEDEADYYCQSYDSSLSGAVVFGGGTKLTVL

binding result (human CTLA4 [1]): binds
B14: G12 (antibody, V domains shown)
VH: EVQLVESGAEVKKPGASVKVSCKASGYTFTSYGISWVRQAPGQGLEWMGWISAYNGNTNYAQKLQGRVTMTTDTSTSTAYMELRSLRSDDTAVYYCARGPGILTGYYFDYWGQGTLVTVSS
VL: EIVMTQSPSSLSASVGDRVTITCRASQGINYHLAWYQQKPGKAPKLLIYAASALQSGVPSRFSGTGSGTEFTLTISSLQPEDFATYYCQQFNTYPLTFGGGTKLEIK

binding result (human CTLA4 [1]): binds
B15: A7 (antibody, V domains shown)
VH: QMQLVQSGAEVKKPGASVKVSCKASGGTFSSYAISWVRQAPGQGLEWMGGIIPIFGTANYAQKFQGRVTITADESTSTAYMELSSLRSEDTAVYYCAREIGSYSSGWYRAFDIWGQGTMVTVSS
VL: DIVMTQSPSTLSASVGDRVTITCRASQSISSWLAWYQQKPGKAPQLLIYKASNLQSGVPSRFSGSGSVTEFSLTISSLLPEDFATYYCQQYSRPPWTFGQGTKVEIK

binding result (human CTLA4 [1]): binds
B16: F3 (antibody, V domains shown)
VH: QMQLVQSGAEVKKPGASVTVSCKASGYTFTNSYIHWVRQAPGQGLEWVGRLIPSSGYTIFSQKLQGRVSMTRDTSMSTHYLTLSHLRPEDTAVYYCATDGGNYNLDFWGQGTLVTVSS
VL: QPVLTQPPSVSGSPGQSVTISCTGTSSDVGGYNYVSWYQQHPGKAPKLMIYDVSSRPSGVSNRFSGSKSDNTASLTISGLQAEDEADYYCSSYTSSSPYVFGTGTKVTVL

binding result (human CTLA4 [1]): binds
B17: G2 (antibody, V domains shown)
VH: QVQLVESGGGLIQPGGSLRLSCAASGFTVSSAYMSWVRQAPGKGLEWVSVIYRGGTTYYADSVKGRFTISRDNSKNTLYLQMNSLRAEDTAVYYCRGEGGNSGDYFDYWGQGTTVTVSS
VL: NFMLTQPASVSGSPGQSITISCTGTSSDVGGYNFVSWYQQHPGKAPKLMIYDVSKRPSGVSNRFSGSKSGNTASLTISGLQAEDEADYYCSSYTSTNTLDVLFGGGTKLTVL
